From paper PMC7733947, “The Key Glycolytic Enzyme Phosphofructokinase Is Involved in Resistance to Antiplasmodial Glycosides” (mBio, 2020) come the findings set out here.

This data set concerns Nc1ncnc2c1ncn2[C@@H]1O[C@H](COP(=O)(O)O)[C@@H](O)[C@H]1O. The data set can be described thus: purified protein.

Regarding PfHAD1 (Plasmodium falciparum 3D7), the Km stood at 4.11 ± 0.88 mM.
The figure for PfHAD2 (Plasmodium falciparum 3D7) is 4.09 ± 0.55 mM.

For orientation: Km means the substrate concentration at which the rate is half of its maximum.
